Results on one substance are retold here after patent publication US11879149B2, “Quantification method of ethanolamine phosphate, oxidoreductase for quantification, composition for quantification, kit for quantification and sensor for quantification” (KIKKOMAN CORPORATION, priority 2018, dated 2024).

The nature of data set [1]: Dehydrogenase activity measurement of AgPEAOX (1-MPES/WST-1, A438). The format is biochemical. Particulars: pH 8.5; final concentration of 50 mM EAP; 37° C. The method, then:
After incubation of 609 μl of the reagent consisting of the composition of Table 3 for 5 minutes at 37° C., 21 μl of the substrate solution (1500 mM EAP) was added and mixed, and the amount of change at A438 (ΔAS) per 1 minute at 37° C. was measured using the spectrophotometer (U-3900, manufactured by Hitachi High-Tech Science Corporation).
Next, 21 μl of ion-exchanged water was added instead of the substrate solution and mixed, and the amount of change at A438 (ΔA0) per 1 minute at 37° C. was measured. 1-methoxy-5-ethylphenazinium ethyl sulfate (1-MPES), and 2-(4-iodophenyl)-3-(4-nitrophenyl)-5-(2,4-disulfophenyl)-2H-tetrazolium monosodium salt (WST-1) manufactured by DOJINDO LABORATORIES were used.
Dehydrogenase activity was calculated based on the following formula: Dehydrogenase activity (U/ml)=(ΔAS−ΔA0)×630×df/(37.0×x)=17.0×(ΔAS−ΔA0)×df/x • 37.0: Millimolar extinction coefficient (mM^−1 cm^−1) of WST-1 formazan dye for 438 nm-Wavelength Light • df: Dilution rate of enzyme solution (Quantification of EAP by AgPEAOX)
In general terms: Formazan colour is commonly taken as a measure of viable cells.

Data set [2] can be described thus: Oxidase activity measurement and pH dependence of AgPEAOX (4-AA/TOOS/POD, A555). The format is biochemical. The method, then: Oxidase activity was measured for the expressed, purified AgPEAOX by the methods described above. After incubating 609 μl of a reagent consisting of the composition of Table 5 at 37° C. for 5 minutes, 21 μl of a substrate solution (1500 mM EAP) was added and mixed, and the amount of change at A555 (ΔAS) per 1 minute at 37° C. was measured using the spectrophotometer (U-3900, manufactured by Hitachi High-Tech Science Corporation).
Next, 21 μl of ion-exchanged water was added instead of the substrate solution and mixed, and the amount of change at A555 (ΔA0) per 1 minute at 37° C. was measured. […]
The oxidase activity was calculated based on the following formula: Oxidase activity (U/ml)=(ΔAS−ΔA0)×630×df/(39.2×0.5×x)=32.1×(ΔAS−ΔA0)×df/x • 39.2: Millimolar extinction coefficient (mM^−1cm^−1) of 4-AA-TOOS Condensation dye for 555 nm-wavelength light • df: Dilution rate of enzyme solution (pH-Dependence Measurement of Catalytic Reaction of AgPEAOX)
When the pH dependence of catalytic reaction of AgPEAOX was measured, the activity was measured by replacing Bicine-NaOH buffer solution pH 8.5 contained in the reagent for activity measurement in Table 5 with a potassium phosphate buffer solution, MOPS-NaOH buffer solution, or Bicine-NaOH adjusted to a predetermined pH.

For the substance “AgPEAOX: phenylethylamine oxidase derived from Arthrobacter globiformis, UniProt ID P46881, SEQ ID NO: 9”, the “dehydrogenase activity of purified AgPEAOX solution” value in data set [1] was 0.069 U/ml (*purified AgPEAOX solution). The “oxidase activity of purified AgPEAOX solution” value in data set [2] (pH 8.5, final concentration of 50 mM EAP, 37° C.) is 2.29 U/ml (*purified AgPEAOX solution). Moreover, the “optimum pH for the catalytic reaction (oxidase activity)” value in data set [2] (potassium phosphate, MOPS-NaOH or Bicine-NaOH buffers, FIG. 3) is 8.5.
